Biological target: T1, kinase suppressor of Ras 1 (KSR1), endogenous (human (endogenous in HEK293), UniProt Q8IVT5 1-923)
T1 sequence (looked up): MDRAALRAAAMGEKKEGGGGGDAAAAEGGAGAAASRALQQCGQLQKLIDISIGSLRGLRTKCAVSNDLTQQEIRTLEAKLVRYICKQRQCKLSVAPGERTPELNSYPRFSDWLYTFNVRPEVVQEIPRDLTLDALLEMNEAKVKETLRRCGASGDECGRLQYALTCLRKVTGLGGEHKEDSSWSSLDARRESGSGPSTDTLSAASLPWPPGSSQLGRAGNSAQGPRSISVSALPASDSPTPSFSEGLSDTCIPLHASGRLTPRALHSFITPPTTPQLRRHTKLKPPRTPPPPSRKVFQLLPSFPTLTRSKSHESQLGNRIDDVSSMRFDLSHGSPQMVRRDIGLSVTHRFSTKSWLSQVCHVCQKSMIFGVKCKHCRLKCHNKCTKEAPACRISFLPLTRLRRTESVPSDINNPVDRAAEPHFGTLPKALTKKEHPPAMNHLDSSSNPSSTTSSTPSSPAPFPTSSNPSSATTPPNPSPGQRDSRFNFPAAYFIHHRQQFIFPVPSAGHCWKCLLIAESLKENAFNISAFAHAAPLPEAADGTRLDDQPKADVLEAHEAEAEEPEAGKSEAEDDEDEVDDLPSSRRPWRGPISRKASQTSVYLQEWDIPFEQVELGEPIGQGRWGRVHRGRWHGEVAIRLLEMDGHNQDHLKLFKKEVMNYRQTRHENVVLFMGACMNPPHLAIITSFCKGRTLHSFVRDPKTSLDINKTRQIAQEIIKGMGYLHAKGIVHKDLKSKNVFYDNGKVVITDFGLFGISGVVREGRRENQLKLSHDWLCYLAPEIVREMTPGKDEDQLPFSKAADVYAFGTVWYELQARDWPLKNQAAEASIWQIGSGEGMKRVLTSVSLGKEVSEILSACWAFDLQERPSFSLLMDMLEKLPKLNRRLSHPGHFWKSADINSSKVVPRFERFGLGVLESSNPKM
Assay: cell-based or functional assay

- growth of MCF-7 cells treated for 48 h with go-onERK-Flag against scrambled-Flag (cell counts): ~2 fold
B1: praja2 (endogenous) (natural protein, human (endogenous in HEK293), UniProt O43164 1-708, looked up)
chain: MSQYTEKEPAAMDQESGKAVWPKPAGGYQTITGRRYGRRHAYVSFKPCMTRHERSLGRAGDDYEVLELDDVPKENSSGSSPLDQVDSSLPSEPIFEKSETEIPTCGSALNQTTESSQSFVAVHHSEEGRDTLGSSTNLHNHSEGEYIPGACSASSVQNGIALVHTDSYDPDGKHGEDNDHLQLSAEVVEGSRYQESLGNTVFELENREAEAYTGLSPPVPSFNCEVRDEFEELDSVPLVKSSAGDTEFVHQNSQEIQRSSQDEMVSTKQQNNTSQERQTEHSPEDAACGPGHICSEQNTNDREKNHGSSPEQVVRPKVRKLISSSQVDQETGFNRHEAKQRSVQRWREALEVEESGSDDLLIKCEEYDGEHDCMFLDPPYSRVITQRETENNQMTSESGATAGRQEVDNTFWNGCGDYYQLYDKDEDSSECSDGEWSASLPHRFSGTEKDQSSSDESWETLPGKDENEPELQSDSSGPEEENQELSLQEGEQTSLEEGEIPWLQYNEVNESSSDEGNEPANEFAQPAFMLDGNNNLEDDSSVSEDLDVDWSLFDGFADGLGVAEAISYVDPQFLTYMALEERLAQAMETALAHLESLAVDVEVANPPASKESIDGLPETLVLEDHTAIGQEQCCPICCSEYIKDDIATELPCHHFFHKPCVSIWLQKSGTCPVCRRHFPPAVIEASAAPSSEPDPDAPPSNDSIAEAP

Reference: PMC4917648, “praja2 regulates KSR1 stability and mitogenic signaling” (Cell Death & Disease, 2016)
